± gives the standard deviation of the averaged measurements.
B1: library; a variant is named by its letters at N, in order (parent)
chain: GCUGUCACCGGUGUAUUACCCUAGUGGUCGACCGGUCUGAUGAGUCUNNNNNNAGACGAAACAGC

Assays:
hypoxanthine [1] = variants of: B1; assay: FACS-Seq fitted mean relative fluorescence mCherry/BFP without ligand (log10 relative fluorescence); ligand: hypoxanthine (xanthine aptamer); higher = higher reporter protein expression; details: HEK293T, ligand present: no
Outline: (§1)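 Sorting into 6 bins by mCherry/BFP followed 48 h of incubation with or without ligand. The cells were enriched HEK293T libraries lentivirally bearing an mCherry reporter with the ribozyme switch and an EF1α-BFP marker, and bin genomic DNA was PCR-amplified, barcoded and sequenced on MiSeq. Fluorescence is the fitted normal mean of the bin counts. Means were fitted on log10(mCherry/BFP), scaled to five spiked-in control ribozymes.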

hypoxanthine [2] = variants of: B1; assay: normalized RNA/DNA level with ligand (relative to sTRSVctl = 100) (log10 (% of sTRSVctl)); ligand: hypoxanthine (xanthine aptamer); higher = less ribozyme self-cleavage, higher mRNA level; details: ligand concentration (+) RNA-Seq: 5 mM, HEK293T, reporter: mCherry (pCS4076), ligand present: yes
Outline: (§2)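 RNA level was computed as RNA reads over DNA reads divided by a spiked-in non-cleaving sequence or by the top sequences, then scaled and log-transformed. Scaling was ×100 with log10, the top group was 25 sequences, and the threshold was ≥100 DNA reads. The reads came from HEK293T cells transfected at 4 µg per 6-well well with ribozyme switch library plasmids (mCherry, or eGFP in some ligand experiments). Total RNA was extracted with EDTA 72 h after transfection, with any ligand added 1 h before it.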

hypoxanthine [3] = variants of: B1; assay: normalized RNA/DNA level without ligand (relative to sTRSVctl = 100) (log10 (% of sTRSVctl)); ligand: hypoxanthine (xanthine aptamer); higher = less ribozyme self-cleavage, higher mRNA level; details: HEK293T, reporter: mCherry (pCS4076), ligand present: no
Outline: as §2

hypoxanthine [4] = variants of: B1; assay: FACS-Seq fitted mean relative fluorescence mCherry/BFP with ligand (log10 relative fluorescence); ligand: hypoxanthine (xanthine aptamer); ligand concentration (+) FACS-Seq: 5 mM; higher = higher reporter protein expression; details: HEK293T, ligand present: yes
Outline: as §1

Variant	FACS-Seq fitted mean (log10) (hypoxanthine [1])	normalized RNA/DNA level with ligand (log10) (hypoxanthine [2])	normalized RNA/DNA level without ligand (log10) (hypoxanthine [3])	FACS-Seq fitted mean (log10) (hypoxanthine [4])
CGGAGU	0.289 ± 0.057	1.91 ± 0.024	1.78 ± 0.074	0.556 ± 0.041
CGGAGG	0.0652 ± 0.064	1.78 ± 0.12	1.28 ± 0.021	0.528 ± 0.0064
UGGAGU	0.221 ± 0.061	1.78 ± 0.019	1.32 ± 0.051	0.602 ± 0.023
UGGAGC	0.45 ± 0.088	1.959 ± 0.019	1.707 ± 0.01	0.69 ± 0.031
UGGAGG	0.223 ± 0.0051	1.73 ± 0.018	1.26 ± 0.072	0.592 ± 0.036
UGGAGA	0.259 ± 0.025	1.791 ± 0.0083	1.33 ± 0.092	0.644 ± 0.0081
GGGGUA	0.00434 ± 0.0088	1.94 ± 0.064	1.837 ± 0.0033	0.179 ± 0.094
UGGUCG	-0.282 ± 0.14	1.924 ± 0.012	1.79 ± 0.06	-0.0942 ± 0.036
UGGUCA	0.761 ± 0.06	1.97 ± 0.043	1.84 ± 0.025	0.607 ± 0.11
CGCGCC	0.276 ± 0.055	1.93 ± 0.021	1.96 ± 0.044	0.445 ± 0.033
CGCGUA	0.477 ± 0.0013	1.95 ± 0.041	1.81 ± 0.067	0.659 ± 0.013
UGGGUA	0.491 ± 0.13	1.95 ± 0.031	1.85 ± 0.061	0.699 ± 0.12
UGGGGA	0.00194 ± 0.046	1.88 ± 0.041	1.48 ± 0.029	0.376 ± 0.0086
GGCGCA	0.59 ± 0.026	1.977 ± 0.0052	1.893 ± 0.0039	0.6023 ± 0.0039
AGGGUU	0.328 ± 0.006	1.97 ± 0.027	1.9 ± 0.029	0.0205 ± 0.029
AGGGUC	0.588 ± 0.012	2.003 ± 0.0048	1.94 ± 0.06	0.51 ± 0.11
AGGGUA	0.412 ± 0.086	1.95 ± 0.041	1.82 ± 0.0091	0.427 ± 0.064
GGGUUA	0.574 ± 0.047	1.99 ± 0.018	1.845 ± 0.013	0.558 ± 0.01

Variant	FACS-Seq fitted mean (log10) (hypoxanthine [1])	normalized RNA/DNA level with ligand (log10) (hypoxanthine [2])	normalized RNA/DNA level without ligand (log10) (hypoxanthine [3])	FACS-Seq fitted mean (log10) (hypoxanthine [4])
AGCUCG	0.177 ± 0.0048	1.931 ± 0.0082	1.63 ± 0.11	0.448 ± 0.0069
AGCGUC	0.8 ± 0.033	1.971 ± 0.0074	1.966 ± 0.01	0.743 ± 0.075
AGCGUG	0.152 ± 0.014	1.798 ± 0.014	1.37 ± 0.042	0.398 ± 0.032
AGCUUG	0.486 ± 0.018	1.94 ± 0.036	1.59 ± 0.018	0.64 ± 0.031
AGCUUC	-0.1877 ± 0.00023	2.019 ± 0.0075	1.927 ± 0.016	-0.0634 ± 0.021
CGGGGC	0.7 ± 0.032	1.95 ± 0.021	1.896 ± 0.017	0.628 ± 0.0078
AGGGAG	-0.123 ± 0.041	1.78 ± 0.086	1.4 ± 0.042	0.0991 ± 0.022
AGGGAC	0.0327 ± 0.041	1.916 ± 0.017	1.7 ± 0.018	-0.137 ± 0.14
AGGGAA	0.524 ± 0.1	1.86 ± 0.025	1.68 ± 0.045	0.684 ± 0.034
UGCGGC	0.67 ± 0.028	1.98 ± 0.035	1.9 ± 0.071	0.708 ± 0.037
UGCGGA	0.465 ± 0.014	1.87 ± 0.056	1.518 ± 0.0062	0.733 ± 0.033
CGGACA	0.518 ± 0.098	1.9 ± 0.068	1.66 ± 0.037	0.612 ± 0.016
AGGACC	0.421 ± 0.0047	1.94 ± 0.042	1.88 ± 0.028	0.565 ± 0.034
AGGACU	0.894 ± 0.099	1.94 ± 0.058	1.802 ± 0.0094	0.734 ± 0.031
AGGACG	0.233 ± 0.013	1.784 ± 0.01	1.37 ± 0.036	0.567 ± 0.0099
CGGGCU	0.773 ± 0.061	1.946 ± 0.019	1.954 ± 0.0037	0.578 ± 0.023
AGCGAC	-0.228 ± 0.049	1.93 ± 0.043	1.787 ± 0.00037	0.298 ± 0.021
AGCGAG	0.352 ± 0.055	1.8 ± 0.031	1.36 ± 0.062	0.443 ± 0.043
